# Test results from patent publication US20190336582A1 (published 2019).
# T1: IL-10 receptor (IL-10R1 and IL-10R2 receptor chains) on mouse cells (mouse, UniProt Q61727 17-575; Q61190 20-349)
# T1 sequence (looked up) 1: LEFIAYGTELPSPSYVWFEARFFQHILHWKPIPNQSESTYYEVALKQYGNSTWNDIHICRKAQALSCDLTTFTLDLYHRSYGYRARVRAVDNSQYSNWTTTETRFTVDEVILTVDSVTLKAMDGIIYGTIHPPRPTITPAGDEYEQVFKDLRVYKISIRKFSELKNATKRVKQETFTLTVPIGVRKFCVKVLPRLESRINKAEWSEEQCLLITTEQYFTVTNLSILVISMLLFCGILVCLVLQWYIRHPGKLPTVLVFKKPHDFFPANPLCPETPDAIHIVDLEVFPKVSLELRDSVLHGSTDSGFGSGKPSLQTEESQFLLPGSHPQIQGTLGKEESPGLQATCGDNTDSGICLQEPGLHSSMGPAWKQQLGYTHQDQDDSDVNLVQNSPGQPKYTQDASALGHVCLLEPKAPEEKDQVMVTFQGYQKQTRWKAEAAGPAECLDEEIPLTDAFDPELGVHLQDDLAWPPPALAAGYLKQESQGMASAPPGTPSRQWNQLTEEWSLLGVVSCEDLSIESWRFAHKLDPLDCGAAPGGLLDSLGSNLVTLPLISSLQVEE
# T1 sequence (looked up) 2: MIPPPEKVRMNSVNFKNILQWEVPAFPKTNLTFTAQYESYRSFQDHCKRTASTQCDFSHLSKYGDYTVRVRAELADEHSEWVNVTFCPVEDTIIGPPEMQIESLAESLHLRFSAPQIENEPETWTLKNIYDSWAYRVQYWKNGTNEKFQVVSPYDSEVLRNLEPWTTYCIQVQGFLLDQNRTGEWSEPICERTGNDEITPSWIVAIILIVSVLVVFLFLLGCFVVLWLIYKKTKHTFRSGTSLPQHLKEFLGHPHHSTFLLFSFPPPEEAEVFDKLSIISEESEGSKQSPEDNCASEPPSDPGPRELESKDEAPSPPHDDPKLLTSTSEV
# Target: T1, IL-10 receptor (IL-10R1 and IL-10R2 …)
# Assay: cell-based or functional assay
binder,measurement,value
Human wild-type IL-10 (wtIL-10) (ligand) SPGQGTQSENSCTHFPGNLPNMLRDLRDAFSRVKTFFQMKDQLDNLLLKESLLEDFKGYLGCQALSEMIQFYLEEVMPQAENQDPDIKAHVNSLGENLKTLRLRLRRCHRFLPCENKSKAVEQVKNAFNKLQEKGIYKAMSEFDIFINYIEAYMTMKIRN,"EC50, proliferation of mouse mast cell line MC/9",5 pM
same,"IC50, inhibition of TNFα production in LPS-stimulated C57BL/6 mouse PBMCs (PBMC + LPS)",0.45 pM
